Reference: article PMC9482650, “Quantitative fragmentomics allow affinity mapping of interactomes” (Nature Communications, 2022)

T1: MPP2, Q14168
T1 sequence (Q14168 180-250, limits assumed, looked up): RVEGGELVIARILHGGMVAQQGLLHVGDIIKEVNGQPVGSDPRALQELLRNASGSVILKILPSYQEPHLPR

T2: DFNB31_1, Q9P202
T2 sequence (Q9P202 135-233, limits assumed, looked up): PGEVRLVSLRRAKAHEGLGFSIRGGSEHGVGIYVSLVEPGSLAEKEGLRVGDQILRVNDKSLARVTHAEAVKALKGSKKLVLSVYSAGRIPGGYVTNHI

T3: APBA2_1, Q99767
T3 sequence (Q99767 563-664, limits assumed, looked up): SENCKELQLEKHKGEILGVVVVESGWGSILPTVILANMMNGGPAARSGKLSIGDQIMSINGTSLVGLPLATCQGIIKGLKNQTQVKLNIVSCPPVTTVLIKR

T4: MPP6, Q9NZW5
T4 sequence (Q9NZW5 125-219, limits assumed, looked up): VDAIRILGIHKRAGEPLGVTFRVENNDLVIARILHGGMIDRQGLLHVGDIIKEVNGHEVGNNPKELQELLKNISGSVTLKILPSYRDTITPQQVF

T5: SNTB1, Q13884
T5 sequence (Q13884 107-205, limits assumed, looked up): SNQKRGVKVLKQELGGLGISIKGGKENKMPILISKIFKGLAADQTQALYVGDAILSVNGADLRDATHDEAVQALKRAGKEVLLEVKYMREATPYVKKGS

T6: DLG3_3, Q92796
T6 sequence (Q92796 374-475, limits assumed, looked up): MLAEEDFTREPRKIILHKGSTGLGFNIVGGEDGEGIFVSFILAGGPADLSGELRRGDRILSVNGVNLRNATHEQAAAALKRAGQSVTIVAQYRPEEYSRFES

T7: GRIP1_7, Q9Y3R0
T7 sequence (Q9Y3R0 999-1096, limits assumed, looked up): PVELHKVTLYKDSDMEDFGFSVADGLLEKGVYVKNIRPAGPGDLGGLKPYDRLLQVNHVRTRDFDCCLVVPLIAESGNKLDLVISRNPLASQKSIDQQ

T8: APBA2_2, Q99767
T8 sequence (Q99767 654-744, limits assumed, looked up): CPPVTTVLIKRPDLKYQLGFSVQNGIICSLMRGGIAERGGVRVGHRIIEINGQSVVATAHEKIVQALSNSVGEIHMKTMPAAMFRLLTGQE

T9: GRIP1_3, Q9Y3R0
T9 sequence (Q9Y3R0 247-346, limits assumed, looked up): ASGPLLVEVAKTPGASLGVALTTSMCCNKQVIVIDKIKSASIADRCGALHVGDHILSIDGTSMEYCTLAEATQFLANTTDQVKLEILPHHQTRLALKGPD

T10: LNX2_3, Q8N448
T10 sequence (Q8N448 463-564, limits assumed, looked up): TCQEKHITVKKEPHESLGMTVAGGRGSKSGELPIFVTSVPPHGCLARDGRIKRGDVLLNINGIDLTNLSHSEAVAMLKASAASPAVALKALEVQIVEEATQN

T11: GRIP1_2, Q9Y3R0
T11 sequence (Q9Y3R0 145-248, limits assumed, looked up): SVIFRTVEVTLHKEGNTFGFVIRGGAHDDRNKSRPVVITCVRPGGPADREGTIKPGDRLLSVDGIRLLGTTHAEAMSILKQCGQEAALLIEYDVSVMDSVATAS

T12: NHERF3_4, Q5T2W1
T12 sequence (Q5T2W1 373-468, limits assumed, looked up): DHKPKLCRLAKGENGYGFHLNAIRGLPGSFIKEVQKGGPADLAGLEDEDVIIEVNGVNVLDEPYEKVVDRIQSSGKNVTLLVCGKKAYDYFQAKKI

T13: ARHGEF11, O15085
T13 sequence (O15085 42-136, limits assumed, looked up): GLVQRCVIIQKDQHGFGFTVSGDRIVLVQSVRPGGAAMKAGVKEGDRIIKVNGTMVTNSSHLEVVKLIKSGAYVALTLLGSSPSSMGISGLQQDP

B1: KLHDC7A, Q5VTJ3 (peptide)
chain: PTPDLPQTRV

target: LNX1_3, Q8TBB1; assay: holdup assay; set-up: key: below the threshold = too weak to quantify, mostly under pKd 3.1 to 4; settings: plain residues with an end cap or a label only (N-terminal biotin on a linker: ado-ado)
Sequence (Q8TBB1 500-596): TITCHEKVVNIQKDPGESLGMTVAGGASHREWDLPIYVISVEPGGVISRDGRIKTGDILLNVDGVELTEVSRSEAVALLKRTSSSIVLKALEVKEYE

pKd | Binder
below the threshold | B1

target: T1, MPP2, Q14168; assay: holdup assay; set-up: key: below the threshold = too weak to quantify, mostly under pKd 3.1 to 4; settings: plain residues with an end cap or a label only (N-terminal biotin on a linker: ado-ado)

pKd | Binder
below the threshold | B1

target: GIPC2, Q8TF65; assay: holdup assay; set-up: key: below the threshold = too weak to quantify, mostly under pKd 3.1 to 4; settings: plain residues with an end cap or a label only (N-terminal biotin on a linker: ado-ado)
Sequence (Q8TF65 112-203): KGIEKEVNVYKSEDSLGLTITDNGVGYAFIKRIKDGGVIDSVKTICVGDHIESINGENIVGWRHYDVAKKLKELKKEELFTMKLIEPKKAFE

pKd | Binder
below the threshold | B1

target: T2, DFNB31_1, Q9P202; assay: holdup assay; set-up: key: below the threshold = too weak to quantify, mostly under pKd 3.1 to 4; settings: plain residues with an end cap or a label only (N-terminal biotin on a linker: ado-ado)

pKd | Binder
4.79 | B1

target: T3, APBA2_1, Q99767; assay: holdup assay; set-up: key: below the threshold = too weak to quantify, mostly under pKd 3.1 to 4; settings: plain residues with an end cap or a label only (N-terminal biotin on a linker: ado-ado)

pKd | Binder
below the threshold | B1

target: T4, MPP6, Q9NZW5; assay: holdup assay; set-up: key: below the threshold = too weak to quantify, mostly under pKd 3.1 to 4; settings: plain residues with an end cap or a label only (N-terminal biotin on a linker: ado-ado)

pKd | Binder
below the threshold | B1

target: GRID2IP_1, A4D2P6; assay: holdup assay; set-up: key: below the threshold = too weak to quantify, mostly under pKd 3.1 to 4; settings: plain residues with an end cap or a label only (N-terminal biotin on a linker: ado-ado)
Sequence (A4D2P6 1-87): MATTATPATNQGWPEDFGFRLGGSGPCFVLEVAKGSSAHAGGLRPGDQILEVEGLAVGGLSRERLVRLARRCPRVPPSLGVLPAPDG

pKd | Binder
below the threshold | B1

target: T5, SNTB1, Q13884; assay: holdup assay; set-up: key: below the threshold = too weak to quantify, mostly under pKd 3.1 to 4; settings: plain residues with an end cap or a label only (N-terminal biotin on a linker: ado-ado)

pKd | Binder
4.95 | B1

target: T6, DLG3_3, Q92796; assay: holdup assay; set-up: key: below the threshold = too weak to quantify, mostly under pKd 3.1 to 4; settings: plain residues with an end cap or a label only (N-terminal biotin on a linker: ado-ado)

pKd | Binder
below the threshold | B1

target: T7, GRIP1_7, Q9Y3R0; assay: holdup assay; set-up: key: below the threshold = too weak to quantify, mostly under pKd 3.1 to 4; settings: plain residues with an end cap or a label only (N-terminal biotin on a linker: ado-ado)

pKd | Binder
below the threshold | B1

target: T8, APBA2_2, Q99767; assay: holdup assay; set-up: key: below the threshold = too weak to quantify, mostly under pKd 3.1 to 4; settings: plain residues with an end cap or a label only (N-terminal biotin on a linker: ado-ado)

pKd | Binder
below the threshold | B1

target: CASK, O14936; assay: holdup assay; set-up: key: below the threshold = too weak to quantify, mostly under pKd 3.1 to 4; settings: plain residues with an end cap or a label only (N-terminal biotin on a linker: ado-ado)
Sequence (O14936 487-570): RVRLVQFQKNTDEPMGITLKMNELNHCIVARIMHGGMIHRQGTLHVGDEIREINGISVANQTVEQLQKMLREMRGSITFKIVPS

pKd | Binder
below the threshold | B1

target: T9, GRIP1_3, Q9Y3R0; assay: holdup assay; set-up: key: below the threshold = too weak to quantify, mostly under pKd 3.1 to 4; settings: plain residues with an end cap or a label only (N-terminal biotin on a linker: ado-ado)

pKd | Binder
below the threshold | B1

target: T10, LNX2_3, Q8N448; assay: holdup assay; set-up: key: below the threshold = too weak to quantify, mostly under pKd 3.1 to 4; settings: plain residues with an end cap or a label only (N-terminal biotin on a linker: ado-ado)

pKd | Binder
below the threshold | B1

target: T11, GRIP1_2, Q9Y3R0; assay: holdup assay; set-up: key: below the threshold = too weak to quantify, mostly under pKd 3.1 to 4; settings: plain residues with an end cap or a label only (N-terminal biotin on a linker: ado-ado)

pKd | Binder
below the threshold | B1

target: DLG4_1, P78352; assay: holdup assay; set-up: key: below the threshold = too weak to quantify, mostly under pKd 3.1 to 4; settings: plain residues with an end cap or a label only (N-terminal biotin on a linker: ado-ado)
Sequence (P78352 62-152): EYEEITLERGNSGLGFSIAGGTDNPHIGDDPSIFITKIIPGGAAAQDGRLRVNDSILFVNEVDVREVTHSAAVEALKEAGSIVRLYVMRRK

pKd | Binder
below the threshold | B1

target: TJP1_3, Q07157; assay: holdup assay; set-up: key: below the threshold = too weak to quantify, mostly under pKd 3.1 to 4; settings: plain residues with an end cap or a label only (N-terminal biotin on a linker: ado-ado)
Sequence (Q07157 416-512): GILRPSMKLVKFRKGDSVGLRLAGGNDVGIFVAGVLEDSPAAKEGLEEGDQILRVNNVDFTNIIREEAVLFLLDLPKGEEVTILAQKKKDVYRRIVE

pKd | Binder
below the threshold | B1

target: T12, NHERF3_4, Q5T2W1; assay: holdup assay; set-up: key: below the threshold = too weak to quantify, mostly under pKd 3.1 to 4; settings: plain residues with an end cap or a label only (N-terminal biotin on a linker: ado-ado)

pKd | Binder
below the threshold | B1

target: DLG1_3, Q12959; assay: holdup assay; set-up: key: below the threshold = too weak to quantify, mostly under pKd 3.1 to 4; settings: plain residues with an end cap or a label only (N-terminal biotin on a linker: ado-ado)
Sequence (Q12959 457-571): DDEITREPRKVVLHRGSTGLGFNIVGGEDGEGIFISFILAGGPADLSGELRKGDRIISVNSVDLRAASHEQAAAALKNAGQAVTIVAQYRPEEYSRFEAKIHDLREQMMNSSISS

pKd | Binder
below the threshold | B1

target: MAST2, Q6P0Q8; assay: holdup assay; set-up: key: below the threshold = too weak to quantify, mostly under pKd 3.1 to 4; settings: plain residues with an end cap or a label only (N-terminal biotin on a linker: ado-ado)
Sequence (Q6P0Q8 1099-1202): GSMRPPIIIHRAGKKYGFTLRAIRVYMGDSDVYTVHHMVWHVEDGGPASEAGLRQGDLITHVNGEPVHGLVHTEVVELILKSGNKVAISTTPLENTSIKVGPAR

pKd | Binder
5.2 | B1

target: NOS1, P29475; assay: holdup assay; set-up: key: below the threshold = too weak to quantify, mostly under pKd 3.1 to 4; settings: plain residues with an end cap or a label only (N-terminal biotin on a linker: ado-ado)
Sequence (P29475 9-101): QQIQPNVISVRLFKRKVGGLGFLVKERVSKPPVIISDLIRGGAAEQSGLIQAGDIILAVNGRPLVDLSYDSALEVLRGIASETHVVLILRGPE

pKd | Binder
below the threshold | B1

target: GORASP2, Q9H8Y8; assay: holdup assay; set-up: key: below the threshold = too weak to quantify, mostly under pKd 3.1 to 4; settings: plain residues with an end cap or a label only (N-terminal biotin on a linker: ado-ado)

pKd | Binder
below the threshold | B1

target: IL16_4, Q14005; assay: holdup assay; set-up: key: below the threshold = too weak to quantify, mostly under pKd 3.1 to 4; settings: plain residues with an end cap or a label only (N-terminal biotin on a linker: ado-ado)
Sequence (Q14005 1229-1329): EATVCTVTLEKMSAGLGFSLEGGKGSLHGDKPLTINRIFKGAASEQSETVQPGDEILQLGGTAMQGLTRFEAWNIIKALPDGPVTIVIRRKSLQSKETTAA

pKd | Binder
3.5 | B1

target: T13, ARHGEF11, O15085; assay: holdup assay; set-up: key: below the threshold = too weak to quantify, mostly under pKd 3.1 to 4; settings: plain residues with an end cap or a label only (N-terminal biotin on a linker: ado-ado)

pKd | Binder
4.16 | B1
